Data: article PMC3684718, “Novel CAD-like enzymes from Escherichia coli K-12 as additional tools in chemical production” (Applied Microbiology and Biotechnology, 2012)

What was measured:
purified protein [1] = substrate: CC(C)C=O; assay: purified protein; conditions: NADPH 0.3 mM, 50 mM Tris-HCl pH 7.5, 37 °C
purified protein [2] = substrate: CCCCCC=O; assay: purified protein; conditions: NADPH 0.3 mM, 50 mM Tris-HCl pH 7.5, 37 °C
purified protein [3] = substrate: O=C[C@H](O)CO; assay: purified protein; conditions: NADPH 0.3 mM, 50 mM Tris-HCl pH 7.5, 37 °C
purified protein [4] = substrate: C/C=C/C=O; assay: purified protein; type: biochemical, Escherichia coli; conditions: NADPH 0.3 mM, 50 mM Tris-HCl pH 7.5, 37 °C, pH 7.5
purified protein [5] = substrate: CCCC=O; assay: purified protein; type: biochemical, Escherichia coli; conditions: NADPH 0.3 mM, 50 mM Tris-HCl pH 7.5, 37 °C, pH 7.5
purified protein [6] = substrate: NC(=O)C1=CN([C@@H]2O[C@H](COP(=O)(O)OP(=O)(O)OC[C@H]3O[C@@H](n4cnc5c(N)ncnc54)[C@H](OP(=O)(O)O)[C@@H]3O)[C@@H](O)[C@H]2O)C=CC1; assay: purified protein; type: biochemical, Escherichia coli; conditions: butyraldehyde, 50 mM Tris-HCl pH 7.5, 37 °C, pH 7.5, varied: cofactor
purified protein [7] = substrate: NC(=O)c1ccc[n+]([C@@H]2O[C@H](COP(=O)(O)OP(=O)(O)OC[C@H]3O[C@@H](n4cnc5c(N)ncnc54)[C@H](OP(=O)(O)O)[C@@H]3O)[C@@H](O)[C@H]2O)c1; assay: purified protein; type: biochemical, Escherichia coli; conditions: butanol, 50 mM Tris-HCl pH 8.5, 37 °C, pH 8.5, varied: cofactor
purified protein [8] = substrate: O=CCCCC=O; assay: purified protein; type: biochemical, Escherichia coli; conditions: NADPH 0.3 mM, 50 mM Tris-HCl pH 7.5, 37 °C, pH 7.5
purified protein [9] = substrate: O=Cc1ccccc1; assay: purified protein; type: biochemical, Escherichia coli; conditions: NADPH 0.3 mM, 50 mM Tris-HCl pH 7.5, 37 °C, pH 7.5
purified protein [10] = substrate: O=Cc1ccco1; assay: purified protein; type: biochemical, Escherichia coli; conditions: NADPH 0.3 mM, 50 mM Tris-HCl pH 7.5, 37 °C, pH 7.5
[11] = substrate: CC=O; assay: purified protein, by the assay type; parameters: NADPH/NADP+ absorbance at 340 nm, purified His-tagged enzyme, Michaelis-Menten fit; pH 7.5 reduction, pH 8.5 oxidation, 37 °C
Method: (§1) The ADH activity was determined photometrically by monitoring the increase/decrease of NADP^+/NADPH at 340 nm in a Mulitskan® spectrum spectrophotometer (Thermo Fisher Scientific). The reaction mixture contained 50 mM Tris-HCl, pH 7.5, 0.3 mM NAD(P)H a defined aldehyde as substrate, and the purified enzyme at 37 °C. One unit of enzyme activity was defined as the amount of protein that oxidizes 1 μmol of NAD(P)H/min at 37 °C. Calculation of Michaelis–Menten kinetics for determination of K m and V max was done with SigmaPlot 11.0 (Systat Software). Alcohols with alkyl chains longer than C6 were not tested as substrates due to solubility problems. For the characterization of recombinant YahK and YjgB, enzyme activity was assayed for the reduction of carbonyl compounds and the oxidation of alcohols. For the reduction of carbonyl compounds, the assays were conducted at pH 7.5, 50 mM Tris-HCl, and 37 °C. The oxidation of alcohols was assayed with a slightly higher pH of 8.5, 50 mM Tris-HCl, and 37 °C. […] The decrease of NADPH at 340 nm was determined using a Shimadzu UV-1800 UV-spectrophotometer (Duisburg, Germany) Protein expression is exemplarily described for one enzyme and was performed for other proteins by the same procedure. E. coli BL21(DE3) containing the plasmid of interest was grown in 50 ml autoinduction media for efficient protein expression (Studier [2005]). In the case of YjgB, YahK, and YqhD, additional ZnCl2 was added to the media with a final concentration of 0.1 mM. The preculture was incubated in 4 ml of LB medium with 100 μg/ml kanamycin at 37 °C overnight on a rotary shaker (180 rpm). Expression culture was inoculated with a 1:100 dilution of overnight culture. Incubation was performed foremost 3 h at 37 °C followed by incubation for 21 h at 16 °C. Cells were harvested by centrifugation and resuspended in 50 mM sodium phosphate buffer (pH 8.0, 20 mM imidazol, 500 mM NaCl, and 10 % glycerol). Crude extracts were prepared by use of a cell disrupter (IUL Instruments) and subsequent addition of MgCl2 to a final concentration of 2.5 mM in combination with DNase (1 μg/ml) and a following incubation for 20 min at room temperature for DNA degradation. The insoluble fraction of the lysate was removed by centrifugation at 20,000 rpm for 40 min at 4 °C. The supernatant was filtered through a 0.45-μm syringe filter and applied to an affinity resin column, 5 ml HisTrap^TM FF, equilibrated with the resuspension buffer using the ÄKTA UPC-900 FPLC-system. The enzyme was washed with 20 ml of resuspension buffer and eluted with 50 mM sodium phosphate buffer (pH 8.0, 500 mM imidazol, 500 mM NaCl, and 10 % glycerol). Aliquots of each eluted fraction were subjected to 12 % SDS-PAGE. The fractions containing the eluted protein were pooled and the protein was desalted using a HiPrep^TM 26/10 Desalting column which preliminary equilibrated with 50 mM Tris-HCl, pH 8.0. Protein concentrations were determined using a Bradford assay Roti®-nanoquant (Carl Roth).

[12] = substrate: CCC=O; assay: purified protein, by the assay type; parameters: NADPH/NADP+ absorbance at 340 nm, purified His-tagged enzyme, Michaelis-Menten fit; pH 7.5 reduction, pH 8.5 oxidation, 37 °C
Method: as §1

[13] = substrate: OCCCCO; assay: purified protein, by the assay type; parameters: NADPH/NADP+ absorbance at 340 nm, purified His-tagged enzyme, Michaelis-Menten fit; pH 7.5 reduction, pH 8.5 oxidation, 37 °C
Method: as §1

purified protein [14] = substrate: CCC=O; assay: purified protein; type: biochemical, Escherichia coli; conditions: NADPH 0.3 mM, 50 mM Tris-HCl pH 7.5, 37 °C, pH 7.5
purified protein [15] = substrate: CCCCO; assay: purified protein; type: biochemical, Escherichia coli; conditions: NADP+, 50 mM Tris-HCl pH 8.5, 37 °C, pH 8.5
[16] = substrate: CC(C)C=O; assay: purified protein, by the assay type; parameters: NADPH/NADP+ absorbance at 340 nm, purified His-tagged enzyme, Michaelis-Menten fit; pH 7.5 reduction, pH 8.5 oxidation, 37 °C
Method: as §1

B1: YahK (Escherichia coli K-12) (protein)
chain: MKIKAVGAYSAKQPLEPMDITRREPGPNDVKIEIAYCGVCHSDLHQVRSEWAGTVYPCVPGHEIVGRVVAVGDQVEKYAPGDLVGVGCIVDSCKHCEECEDGLENYCDHMTGTYNSPTPDEPGHTLGGYSQQIVVHERYVLRIRHPQEQLAAVAPLLCAGITTYSPLRHWQAGPGKKVGVVGIGGLGHMGIKLAHAMGAHVVAFTTSEAKREAAKALGADEVVNSRNADEMAAHLKSFDFILNTVAAPHNLDDFTTLLKRDGTMTLVGAPATPHKSPEVFNLIMKRRAIAGSMIGGIPETQEMLDFCAEHGIVADIEMIRADQINEAYERMLRGDVKYRFVIDNRTLTD
notes: expressed in E. coli BL21(DE3) with ZnCl2
For B1, which Km (purified protein [1]) is on record?
The Km was 2200 ± 200 µM.

And the kcat (purified protein [1])?
Its kcat is 32.1 s⁻¹.

What about the kcat/Km (purified protein [1]) of the same protein?
Its kcat/Km is 14600 M⁻¹ s⁻¹.

And the Km (purified protein [2])?
The Km was 370 ± 20 µM.

What about the kcat (purified protein [2]) of the same protein?
The kcat was 18.3 s⁻¹.

And the kcat/Km (purified protein [2])?
The kcat/Km was 49500 M⁻¹ s⁻¹.

And the Km (purified protein [3])?
The Km was 4400 ± 400 µM.

What about the kcat (purified protein [3]) of the same protein?
The kcat was 12.3 s⁻¹.

And the kcat/Km (purified protein [3])?
Its kcat/Km is 2800 M⁻¹ s⁻¹.

And the Km (purified protein [4])?
The Km was 3600 ± 400 µM.

What about the kcat (purified protein [4]) of the same protein?
Its kcat is 32.6 ± 2.1 s⁻¹.

What about the kcat/Km (purified protein [4]) of the same protein?
Its kcat/Km is 9100 M⁻¹ s⁻¹.

What about the Km (purified protein [5]) of the same protein?
Its Km is 2100 ± 100 µM.

And the kcat (purified protein [5])?
The kcat was 41.6 ± 0.6 s⁻¹.

What about the kcat/Km (purified protein [5]) of the same protein?
Its kcat/Km is 19800 M⁻¹ s⁻¹.

And the Km (purified protein [6])?
Its Km is 11 ± 1 µM.

And the kcat (purified protein [6])?
The kcat was 9.8 ± 0.4 s⁻¹.

And the kcat/Km (purified protein [6])?
The kcat/Km was 894000 M⁻¹ s⁻¹.

And the Km (purified protein [7])?
Its Km is 12 ± 1 µM.

And the kcat (purified protein [7])?
The kcat was 7.47 ± 0.07 s⁻¹.

And the kcat/Km (purified protein [7])?
Its kcat/Km is 622000 M⁻¹ s⁻¹.

And the Km (purified protein [8])?
Its Km is 4100 ± 400 µM.

And the kcat (purified protein [8])?
Its kcat is 13.4 ± 1.5 s⁻¹.

And the kcat/Km (purified protein [8])?
The kcat/Km was 3300 M⁻¹ s⁻¹.

And the Km (purified protein [9])?
Its Km is 290 ± 20 µM.

And the kcat (purified protein [9])?
Its kcat is 7.75 ± 0.5 s⁻¹.

And the kcat/Km (purified protein [9])?
Its kcat/Km is 26700 M⁻¹ s⁻¹.

What about the Km (purified protein [10]) of the same protein?
The Km was 135 ± 30 µM.

What about the kcat (purified protein [10]) of the same protein?
The kcat was 12.5 ± 1.9 s⁻¹.

What about the kcat/Km (purified protein [10]) of the same protein?
Its kcat/Km is 92300 M⁻¹ s⁻¹.

And the Km [11]?
Its Km is 13300 ± 1000 µM.

What about the kcat [11] of the same protein?
Its kcat is 11.2 ± 0.7 s⁻¹.

What about the kcat/Km [11] of the same protein?
Its kcat/Km is 840 M⁻¹ s⁻¹.

And the Km [12]?
Its Km is 10900 ± 1000 µM.

And the kcat [12]?
The kcat was 11.6 ± 0.6 s⁻¹.

And the kcat/Km [12]?
Its kcat/Km is 1100 M⁻¹ s⁻¹.

And the Km [13]?
The Km was 38500 ± 2900 µM.

And the kcat [13]?
The kcat was 6.7 ± 0.3 s⁻¹.

And the kcat/Km [13]?
Its kcat/Km is 180 M⁻¹ s⁻¹.

B2: YjgB (Escherichia coli K-12) (protein)
chain: MSMIKSYAAKEAGGELEVYEYDPGELRPQDVEVQVDYCGICHSDLSMIDNEWGFSQYPLVAGHEVIGRVVALGSAAQDKGLQVGQRVGIGWTARSCGHCDACISGNQINCEQGAVPTIMNRGGFAEKLRADWQWVIPLPENIDIESAGPLLCGGITVFKPLLMHHITATSRVGVIGIGGLGHIAIKLLHAMGCEVTAFSSNPAKEQEVLAMGADKVVNSRDPQALKALAGQFDLIINTVNVSLDWQPYFEALTYGGNFHTVGAVLTPLSVPAFTLIAGDRSVSGSATGTPYELRKLMRFAARSKVAPTTELFPMSKINDAIQHVRDGKARYRVVLKADF
notes: as for B1
Which results are given for B2?
Km (purified protein [2]): 340 ± 30 µM; kcat (purified protein [2]): 419 s⁻¹; kcat/Km (purified protein [2]): 1.23e+06 M⁻¹ s⁻¹; Km (purified protein [4]): 2400 ± 200 µM; kcat (purified protein [4]): 77.6 ± 3.3 s⁻¹; kcat/Km (purified protein [4]): 32300 M⁻¹ s⁻¹; Km (purified protein [14]): 19600 ± 800 µM; kcat (purified protein [14]): 207 ± 2.9 s⁻¹; kcat/Km (purified protein [14]): 10600 M⁻¹ s⁻¹; Km (purified protein [5]): 2100 ± 90 µM; kcat (purified protein [5]): 464 ± 24.2 s⁻¹; kcat/Km (purified protein [5]): 221000 M⁻¹ s⁻¹; Km (purified protein [15]): 3500 ± 280 µM; kcat (purified protein [15]): 13.8 ± 0.6 s⁻¹; kcat/Km (purified protein [15]): 3940 M⁻¹ s⁻¹; Km (purified protein [6]): 60 ± 3 µM; kcat (purified protein [6]): 224 ± 36.5 s⁻¹; kcat/Km (purified protein [6]): 3.73e+06 M⁻¹ s⁻¹; Km (purified protein [7]): 76 ± 10 µM; kcat (purified protein [7]): 14.4 ± 0.2 s⁻¹; kcat/Km (purified protein [7]): 189000 M⁻¹ s⁻¹; Km (purified protein [8]): 5800 ± 500 µM; kcat (purified protein [8]): 312 ± 14.8 s⁻¹; kcat/Km (purified protein [8]): 53800 M⁻¹ s⁻¹; Km (purified protein [9]): 240 ± 20 µM; kcat (purified protein [9]): 313 ± 7.4 s⁻¹; kcat/Km (purified protein [9]): 1.3e+06 M⁻¹ s⁻¹; Km (purified protein [10]): 220 ± 20 µM; kcat (purified protein [10]): 224 ± 26.9 s⁻¹; kcat/Km (purified protein [10]): 1.02e+06 M⁻¹ s⁻¹; Km [16]: 193700 ± 27500 µM; kcat [16]: 50.8 ± 9.4 s⁻¹; kcat/Km [16]: 260 M⁻¹ s⁻¹; Km [11]: 73400 ± 5400 µM; kcat [11]: 333 ± 26.1 s⁻¹; kcat/Km [11]: 4500 M⁻¹ s⁻¹; Km [13]: 24100 ± 1500 µM; kcat [13]: 12.9 ± 0.4 s⁻¹; kcat/Km [13]: 530 M⁻¹ s⁻¹
